From the supplement of paper PMC10567573

B1: IQUB (parent)
chain: CRNCINLQNEAQKRESFLKYKCLL

Variants of: B1
Assay: protein stability index of a GFP-peptide fusion (GPS, HEK-293T) (PSI 1-6); higher = more stable
Conditions: c terminus: a fixed tail appended
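Note: lentivirally expressed fusions sorted by FACS into six bins by GFP to DsRed ratio, PSI derived from sequencing read proportions per bin multiplied by bin number.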

Protein stability index of substitutions, site by site:
E15: H 2.75, D 2.13, S 2.3, A 2.85, Y 2.04, C 1.47, W 1.62, M 3.62, F 2.57, N 2.51, P 2.05, L 2.77, G 2.37, K 1.92, R 1.08, T 2.24, Q 2.01
L23: R 2.17, E 1.75, N 2.12, P 2.69, S 2.18, M 1.77, T 1.97, A 1.5, F 2.53, D 2.7, C 2.98, G 2.03, H 1.6, Y 2.05, I 2.25, W 2.21, Q 1.87, V 3.23
L7: A 1.75, C 2.13, T 1.67, W 2.57, N 2.26, Y 1.86, I 1.79, S 2.29, M 2.39, G 2.36, H 1.55, R 1.65, D 2.31, F 1.68, Q 1.75, E 2.27, P 2.21, K 1.95, V 2.01
R14: G 1.67, V 2.36, K 2.02, F 2.34, H 1.83, Q 1.89, M 1.39, S 2.56, W 1.86, C 1.64, T 1.84, N 2.26, E 1.36, A 1.02, D 2.66, Y 2.43, P 2.35, I 2.86
F17: M 1.58, S 2.08, V 2.25, Y 1.59, R 2.65, E 2.6, D 2.45, N 2.22, W 1.58, P 2.33, K 2.33, Q 1.5, L 1.77, T 2.74, H 1.68, C 2.13, A 2.02, G 2.84, I 1.79
C22: Y 1.84, S 1.65, W 2.01, D 2.46, I 2.13, G 1.42, R 1.3, H 2.18, A 1.58, K 1.87, P 2.25, M 1.79, L 1.76, N 1.49, V 1.73, Q 2.33, T 1.41, E 2.69
S16: I 1.59, W 1.69, C 1.53, H 2.25, T 1.59, G 2.93, N 1.84, Q 2.06, A 2.05, P 2.2, V 2.4, L 1.99, D 2.11, F 2.23, E 2.15, R 2.62, K 1.88
K13: H 2.74, V 1.78, E 1.29, Y 1.73, Q 1.75, R 1.74, F 2.35, I 2.01, C 1.17, M 1.8, T 2.04, L 2.79, P 2.02, A 1.54, G 2.04, N 1.85, W 2.06, D 1.58
A11: R 1.19, V 1.57, H 1.66, T 2.8, Y 1.69, C 1.59, P 1.71, I 1.82, M 2.25, S 2.06, D 2.08, E 2.19, Q 1.34, L 1.98, N 1.56, K 1.78
L18: Q 1.85, A 1.57, N 2.27, C 2.6, V 1.88, E 2.25, K 2.15, F 2.79, T 1.88, R 1.65, M 2.72, H 2.23, G 2.9, I 1.51, Y 1.38, S 1.39, P 2.11, W 1.96, D 1.63
K19: D 1.3, F 2.54, P 1.46, E 1.74, W 1.01, A 1.46, L 2.69, H 1.68, M 2.28, G 2.2, I 2.19, T 2.23, R 1.56, C 3.27, Q 1.85, N 1.63
Q8: C 2.9, N 1.87, D 1.13, F 1.59, S 2.82, K 1.38, E 2.53, W 2.46, V 2.12, L 3.13, R 2.17, G 1.57, P 1.68, I 1.72, A 1.63, T 1.61, H 2.08
N9: C 1.57, E 1.42, K 1.98, I 2.01, V 1.53, P 2.33, T 1.33, H 1.53, M 1.39, Q 1.49, Y 2.32, L 2.12, D 2.28, A 1.84, G 2.15, W 2.72, S 1.95, R 2.42
N6: D 1.47, V 1.88, F 2.2, G 1.91, Y 1.48, I 2.59, H 1.97, L 2.27, W 1.9, S 2.37, R 2.09, K 1.76, C 1.76, T 1.72, A 1.77, M 1.46, Q 2.25, E 1.7, P 1.7
Q12: Y 2.28, P 2.83, C 1.81, S 1.31, F 2.23, V 2.12, W 2.31, A 2.34, E 2.29, I 2.58, K 2.06, N 1.69, G 1.75, T 1.71, M 1.5, R 1.96, D 1.87, H 1.75
Y20: H 1.69, N 2.96, P 1.89, W 2.46, T 2.14, L 2.14, K 2.46, D 2.11, Q 2.96, F 1.66, G 3.06, S 1.5, E 2.17, A 2.34, R 1.83, C 3.65, M 2.66
E10: R 1.7, H 2.56, G 1.68, C 1.71, F 2.7, P 1.37, Q 2.23, I 1.35, L 1.65, A 1.52, D 1.63, T 1.71, N 1.94, K 2.09, S 1.9, M 2.14
I5: Q 1.97, L 2.16, N 2.33, W 1.4, E 2.53, M 1.8, P 2.04, T 1.71, S 1.89, K 1.45, H 1.8, Y 2.21, G 1.83, V 1.61, R 1.88
K21: F 1.74, A 1.16, P 1.74, M 1.76, H 2.47, W 1.78, Y 1.51, C 1.77, D 2.06, Q 2.28, R 2.53, I 2.28, G 2.7, V 3.66, E 1.75, T 1.58, S 1.94, L 1.38, N 1.47
